From patent US20240209076A1 (KODIAK SCIENCES, published 2024)
Numbering of substitutions follows the chain as printed. In names and notes the source's numbering stands.

B1: anti-IL-6 antibody, heavy chain F29H, light chain WT (antibody, IgG1, V domains shown)
VH: EVQLVESGGGLVQPGGSLRLSCAASGFTHSPFAMSWVRQAPGKGLEWVAKISPGGSWTYYSDTVTGRFTFSLDTSKSTAYLQMNSLRAEDTAVYYCARQLWGYYALDIWGQGTLVTVSS
VL: DIQLTQSPSSLSASVGDRVTITCSASISVSYMYWYQQKPGKAPKLLIYDMSNLASGVPSRFSGSGSGTDFTLTISSLQPEDFATYYCMQWSGYPYTFGQGTKVEIK
notes: Full IgG1 tested; V domains derived as in m2
B2: anti-IL-6 antibody, heavy chain WT, light chain A25T (antibody, IgG1, V domains shown)
VH: B1 VH with H29F
VL: B1 VL with A25T
notes: as for B1
B3: anti-IL-6 antibody, heavy chain WT, light chain I27L (antibody, IgG1, V domains shown)
VH: B1 VH with H29F
VL: B1 VL with I27L
notes: as for B1
B4: anti-IL-6 antibody, heavy chain G26R, light chain WT (antibody, IgG1, V domains shown)
VH: B1 VH with G26R, H29F
VL: B1 VL
notes: as for B1
B5: anti-IL-6 antibody, heavy chain L106F, light chain WT (antibody, IgG1, V domains shown)
VH: B1 VH with H29F, L106F
VL: B1 VL
notes: as for B1
B6: anti-IL-6 antibody, heavy chain F32G, light chain WT (antibody, IgG1, V domains shown)
VH: B1 VH with H29F, F32G
VL: B1 VL
notes: as for B1
B7: anti-IL-6 antibody, heavy chain G66D, light chain WT (antibody, IgG1, V domains shown)
VH: B1 VH with H29F, G66D
VL: B1 VL
notes: Full IgG1 tested
B8: anti-IL-6 antibody, heavy chain I108F, light chain WT (antibody, IgG1, V domains shown)
VH: B1 VH with H29F, I108F
VL: B1 VL
notes: as for B1
B9: anti-IL-6 antibody, heavy chain L100Q, light chain WT (antibody, IgG1, V domains shown)
VH: B1 VH with H29F, L100Q
VL: B1 VL
notes: as for B1
B10: anti-IL-6 antibody, heavy chain I108E, light chain WT (antibody, IgG1, V domains shown)
VH: B1 VH with H29F, I108E
VL: B1 VL
notes: as for B1
B11: anti-IL-6 antibody, heavy chain I108S, light chain WT (antibody, IgG1, V domains shown)
VH: B1 VH with H29F, I108S
VL: B1 VL
notes: as for B1
B12: anti-IL-6 antibody, heavy chain WT, light chain I27F (antibody, IgG1, V domains shown)
VH: B1 VH with H29F
VL: B1 VL with I27F
notes: as for B1
B13: anti-IL-6 antibody, heavy chain WT, light chain I27W (antibody, IgG1, V domains shown)
VH: B1 VH with H29F
VL: B1 VL with I27W
notes: as for B1
B14: anti-IL-6 antibody, heavy chain WT, light chain A25S (antibody, IgG1, V domains shown)
VH: B1 VH with H29F
VL: B1 VL with A25S
notes: as for B1
B15: anti-IL-6 antibody, heavy chain I51R, light chain WT (antibody, IgG1, V domains shown)
VH: B1 VH with H29F, I51R
VL: B1 VL
notes: as for B1
B16: anti-IL-6 antibody, heavy chain G66E, light chain WT (antibody, IgG1, V domains shown)
VH: B1 VH with H29F, G66E
VL: B1 VL
notes: as for B1
B17: anti-IL-6 antibody, heavy chain G26S, light chain WT (antibody, IgG1, V domains shown)
VH: B1 VH with G26S, H29F
VL: B1 VL
notes: as for B1
B18: anti-IL-6 antibody, heavy chain W57F, light chain WT (antibody, IgG1, V domains shown)
VH: B1 VH with H29F, W57F
VL: B1 VL
notes: as for B1
B19: anti-IL-6 antibody, heavy chain M34W, light chain WT (antibody, IgG1, V domains shown)
VH: B1 VH with H29F, M34W
VL: B1 VL
notes: Full IgG1 tested; VL as in m2
B20: anti-IL-6 antibody, heavy chain F29Y, light chain WT (antibody, IgG1, V domains shown)
VH: B1 VH with H29Y
VL: B1 VL
notes: as for B1
B21: anti-IL-6 antibody, light chain M32L (heavy chain WT) (antibody, V domains shown)
VH: B1 VH with H29F
VL: B1 VL with M32L
notes: See note of m2; also called WT / M32L
B22: anti-IL-6 antibody, heavy chain variant I (M34I, G66D, I108V) / light chain variant IV (M32L, M50A, N52S, M88Q) (antibody, V domains shown)
VH: B1 VH with H29F, M34I, G66D, I108V
VL: B1 VL with M32L, M50A, N52S, M88Q
notes: See note of m39; also called M34I, G66D, I108V/ M32L, M50A, N52S, M88Q; I/IV
B23: anti-IL-6 antibody, heavy chain variant II (M34W, G66D, I108V) / light chain variant III (M32L, M50D, N52S, M88Q) (antibody, V domains shown)
VH: B1 VH with H29F, M34W, G66D, I108V
VL: B1 VL with M32L, M50D, N52S, M88Q
notes: See note of m39; also called M34W, G66D, I108V/ M32L, M50D, N52S, M88Q; II/III
B24: anti-IL-6 antibody, heavy chain variant II (M34W, G66D, I108V) / light chain variant V (M32L, M50D, M88Q) (antibody, V domains shown)
VH: B1 VH with H29F, M34W, G66D, I108V
VL: B1 VL with M32L, M50D, M88Q
notes: See note of m39; also called M34W, G66D, I108V/ M32L, M50D, M88Q; II/V
B25: anti-IL-6 antibody, heavy chain variant II (M34W, G66D, I108V) / light chain variant IV (M32L, M50A, N52S, M88Q) (antibody, V domains shown)
VH: B1 VH with H29F, M34W, G66D, I108V
VL: B1 VL with M32L, M50A, N52S, M88Q
notes: See note of m39; also called M34W, G66D, I108V/ M32L, M50A, N52S, M88Q; II/IV
B26: anti-IL-6 antibody, light chain D49E (heavy chain WT) (antibody, V domains shown)
VH: B1 VH with H29F
VL: B1 VL with D49E
notes: See note of m2; also called WT / D49E
B27: anti-IL-6 antibody, heavy chain variant I (M34I, G66D, I108V) / light chain variant III (M32L, M50D, N52S, M88Q) (antibody, human IgG1, V domains shown)
VH: B1 VH with H29F, M34I, G66D, I108V
VL: B1 VL with M32L, M50D, N52S, M88Q
notes: also called M34I, G66D, I108V/ M32L, M50D, N52S, M88Q; I/III
B28: anti-IL-6 antibody, heavy chain variant I (M34I, G66D, I108V) / light chain variant V (M32L, M50D, M88Q) (antibody, V domains shown)
VH: B1 VH with H29F, M34I, G66D, I108V
VL: B1 VL with M32L, M50D, M88Q
notes: See note of m39; also called M34I, G66D, I108V/ M32L, M50D, M88Q; I/V

These binders were tested against T1, recombinant human IL-6 (human, UniProt P05231 30-212) (assay: SPR (Biacore), purified IgG on Protein A, 37 C).
T1 construct: Flowed in solution over the captured antibodies
Protocol: (§1) Antibodies were captured on a Protein A chip (GE) by injecting 1:20 dilution of cell supernatant at 10 μL/min for 60 seconds. […] The sensor chip was regenerated by a 60 seconds injection of 10 mM Glycine pH 1.7 at flow rate of 50 μL/min. […] For this setup, 1 μg/mL of purified antibody was injected over a Protein A chip at 10 μL/min for 25-28 seconds. Data analysis for supernatant and purified samples were performed using BIAevaluation software (GE). All sensorgrams were double reference subtracted and fit using a 1:1 Langmuir binding model.
T1 sequence (P05231 30-212 limits assumed): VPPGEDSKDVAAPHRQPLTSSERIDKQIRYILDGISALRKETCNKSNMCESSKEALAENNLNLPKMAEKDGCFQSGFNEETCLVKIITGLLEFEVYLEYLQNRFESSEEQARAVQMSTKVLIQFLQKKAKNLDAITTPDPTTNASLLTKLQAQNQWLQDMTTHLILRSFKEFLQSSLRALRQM

Kd [pM]	koff [s⁻¹]	kon [M⁻¹ s⁻¹]	Binder
466	0.000397	850000	B1
425	0.000378	889000	B2
553	0.000449	811000	B3
465	0.000326	702000	B4
634	0.000541	852000	B5
569	0.00037	650000	B6
69.5	0.000136	1.96e+06	B7
587	0.000401	683000	B8
499	0.00041	823000	B9
404	0.000372	921000	B10
391	0.000336	858000	B11
685	0.00069	1.01e+06	B12
719	0.000764	1.06e+06	B13
438	0.000342	782000	B14
505	0.000343	679000	B15
89.5	0.000171	1.91e+06	B16
463	0.00039	842000	B17
524	0.000453	864000	B18
394	0.000236	599000	B19
444	0.000374	842000	B20

The binders below were run against T1, recombinant human IL-6 (assay: SPR (Biacore), supernatant IgG on Protein A, 25 C).

Kd [pM]	koff [s⁻¹]	kon [M⁻¹ s⁻¹]	Binder
273	0.000135	495000	B1
235	0.000119	508000	B2
332	0.000145	437000	B3
302	0.000121	402000	B4
314	0.000185	591000	B5
318	0.000133	418000	B6
90.2	0.000117	1.3e+06	B7
399	0.000146	365000	B8
384	0.000153	398000	B9
305	0.000174	571000	B10
256	0.000141	554000	B11
443	0.000193	436000	B12
330	0.000161	487000	B13
197	0.000105	535000	B14
165	7.6e-05	462000	B15
107	0.00011	1.02e+06	B16
209	0.000115	551000	B17
222	0.000128	577000	B18
390	0.000115	296000	B19
266	0.000133	499000	B20

What follows are binders tested against T2, recombinant human IL-6 (human, UniProt P05231 30-212) (assay: SPR Biacore, purified Ab on Protein A chip, IL-6 analyte, 37 C).
T2 construct: Bought protein
Protocol: as §1
T2 sequence (P05231 30-212 limits assumed): as above

Kd [pM]	koff [s⁻¹]	kon [M⁻¹ s⁻¹]	Binder
395	0.00035	885000	B21
556	0.000757	1.15e+06	B22
507	0.000551	1.19e+06	B23
465	0.000627	1.34e+06	B24
615	0.000652	1.08e+06	B25
624	0.000417	668000	B26
625	0.000702	1.22e+06	B27
602	0.00073		B28

These binders were tested against T2, recombinant human IL-6 (assay: SPR Biacore, supernatant Ab on Protein A chip, IL-6 analyte, 25 C).
Protocol: as §1

Kd [pM]	koff [s⁻¹]	kon [M⁻¹ s⁻¹]	Binder
199	0.000118	591000	B21
323	0.000214	462000	B22
370	0.000173		B23
231	0.000271	700000	B24
297	0.00117	559000	B25
241	0.000111	459000	B26
552	0.0002		B27
386			B28
